{
  "source": "paper PMC3205929",
  "about": "(The Journal of neuroscience : the official journal of the …, 2011)",
  "binders": {"B1": {"name": "Rin, endogenous in PC12 cells (natural protein, rat (endogenous in PC12), UniProt Q5BJQ5 1-217, looked up)", "chain": "MEAENEAHCCPGSSSGGSREYKVVMLGAGGVGKSAVTMQFISHQFPDYHDPTIEDAYKTQVRIDNEPAYLDILDTAGQAEFTAMREQYMRGGEGFIICYSVTDRQSFQEAAKFKELIFQVRHTYEIPLVLVGNKIDLEQFRQVSTEEGMTLARDYNCAFFETSAALRFGIDDAFQGLVREIRRKESMLSLVERKLKRKDSLWKKIKASLKKKRENMI"}},
  "biological_target": "DAT 587–590(4A) mutant expressed in PC12 cells (human, UniProt Q01959 1-620, 587–590(4A))",
  "experiment": "co-IP",
  "data": [
    {"binder": "B1", "values": [
      {"measurement": "basal interaction with Rin, % of wild type DAT", "result": "300 % of wild type DAT/Rin interactions"}
    ]}
  ]
}
